# Laboratory results as given in publication PMC7537107 (Journal of neurochemistry, 2019).
# B1: HA-tagged spinophilin, full length (amino acids 1-817, fragment A) (natural protein)
# chain: not shown
# B2: V5-tagged GluN2B C-terminal, cytosolic tail (amino acids 839-1484) (domain or fragment, human, UniProt Q13224 839-1484, looked up)
# chain: EHLFYWQFRHCFMGVCSGKPGMVFSISRGIYSCIHGVAIEERQSVMNSPTATMNNTHSNILRLLRTAKNMANLSGVNGSPQSALDFIRRESSVYDISEHRRSFTHSDCKSYNNPPCEENLFSDYISEVERTFGNLQLKDSNVYQDHYHHHHRPHSIGSASSIDGLYDCDNPPFTTQSRSISKKPLDIGLPSSKHSQLSDLYGKFSFKSDRYSGHDDLIRSDVSDISTHTVTYGNIEGNAAKRRKQQYKDSLKKRPASAKSRREFDEIELAYRRRPPRSPDHKRYFRDKEGLRDFYLDQFRTKENSPHWEHVDLTDIYKERSDDFKRDSVSGGGPCTNRSHIKHGTGDKHGVVSGVPAPWEKNLTNVEWEDRSGGNFCRSCPSKLHNYSTTVTGQNSGRQACIRCEACKKAGNLYDISEDNSLQELDQPAAPVAVTSNASTTKYPQSPTNSKAQKKNRNKLRRQHSYDTFVDLQKEEAALAPRSVSLKDKGRFMDGSPYAHMFEMSAGESTFANNKSSVPTAGHHHHNNPGGGYMLSKSLYPDRVTQNPFIPTFGDDQCLLHGSKSYFFRQPTVAGASKARPDFRALVTNKPVVSALHGAVPARFQKDICIGNQSNPCVPNNKNPRAFNGSSNGHVYEKLSSIESDV
# Legend:
# [1] = molecular target: B2; experiment: co-IP
# [2] = molecular target: B1; experiment: co-IP
fold change of co-IP with IBMX/forskolin against vehicle (V5 IP) [1],fold change of co-IP with PKAc overexpressed against without (GluN2B_(Tail) IP) [1],fold change of co-IP with IBMX/forskolin against vehicle (HA IP) [2],fold change of co-IP with PKAc overexpressed against without (spinophilin IP) [2],Binder
3.05 ratio to control,10.6 ratio to control,–,–,B1
–,–,1.48 ratio to control,2.14 ratio to control,B2
